In PMC2857461 (The EMBO Journal, 2010):

How the values were obtained:
AUC = biological target: the molecule itself; experiment: AUC
cross-linking = biological target: the molecule itself; experiment: cross-linking

B1: His‐CT2 (domain or fragment, human, UniProt Q13563 680-968, looked up)
chain: INDTYSEVKSDLAQQKAEMELSDLIRKGYHKALVKLKLKKNTVDDISESLRQGGGKLNFDELRQDLKGKGHTDAEIEAIFTKYDQDGDQELTEHEHQQMRDDLEKEREDLDLDHSSLPRPMSSRSFPRSLDDSEEDDDEDSGHSSRRRGSISSGVSYEEFQVLVRRVDRMEHSIGSIVSKIDAVIVKLEIMERAKLKRREVLGRLLDGVAEDERLGRDSEIHREQMERLVREELERWESDDAASQISHGLGTPVGLNGQPRPRSSRPSSSQSTEGMEGAGGNGSSNVHV
In the case of B1, the “stoichiometry N” value (AUC) is reported as 2 and the “stoichiometry N” value (cross-linking) is reported as 4.
